Data: patent US9827336B2, “Radio-pharmaceutical complexes” (Bayer AS, priority 2012, dated 2017)

B1: AGC0715: AGC0700 conjugated to high-solubility ligand (12) (conjugate)
heavy: QVQLVQSGAEVKKPGSSVKVSCKASGYTFTDYNMHWVRQAPGQGLEWIGYIYPYNGGTGYNQKFKSKATITADESTNTAYMELSSLRSEDTAVYYCARGRPAMDYWGQGTLVTVSSASTKGPSVFPLAPSSKSTSGGTAALGCLVKDYFPEPVTVSWNSGALTSGVHTFPAVLQSSGLYSLSSVVTVPSSSLGTQTYICNVNHKPSNTKVDKKVEPKSCDKTHTCPPCPAPELLGGPSVFLFPPKPKDTLMISRTPEVTCVVVDVSHEDPEVKFNWYVDGVEVHNAKTKPREEQYNSTYRVVSVLTVLHQDWLNGKEYKCKVSNKALPAPIEKTISKAKGQPREPQVYTLPPSRDELTKNQVSLTCLVKGFYPSDIAVEWESNGGQPENNYKTTPPVLDSDGSFFLYSKLTVDKSRWQQGNVFSCSVMHEALHNHYTQKSLSLSPG
light: DIQMTQSPSSLSASVGDRVTITCRASESVDNYGISFMNWFQQKPGKAPKLLIYAASNQGSGVPSRFSGSGSGTDFTLTISSLQPDDFATYYCQQSKEVPWTFGQGTKVEIKRTVAAPSVFIFPPSDEQLKSGTASVVCLLNNFYPREAKVQWKVDNALQSGNSQESVTEQDSKDSTYSLSSTLTLSKADYEKHKVYACEVTHQGLSSPVTKSFNRGEC
modifications: chelator AGC0015 (12) conjugated; site not stated; none, one or two chelators on a chain
B2: AGC0715-Th-227: AGC0715 antibody-chelator conjugate chelated with Th-227 (conjugate)
heavy: B1 heavy
light: B1 light
modifications: chelator AGC0015 (12) conjugated, chelating Th-227; site not stated

Legend:
CD33 = molecular target: T1, CD33 (Homo sapiens, UniProt P20138); test: Binding to CD33-positive HL-60 cells by flow cytometry; conditions: FIG. 2
T1 construct: endogenous in cells; host or cells: HL-60 cells
T1 sequence (P20138 18-364): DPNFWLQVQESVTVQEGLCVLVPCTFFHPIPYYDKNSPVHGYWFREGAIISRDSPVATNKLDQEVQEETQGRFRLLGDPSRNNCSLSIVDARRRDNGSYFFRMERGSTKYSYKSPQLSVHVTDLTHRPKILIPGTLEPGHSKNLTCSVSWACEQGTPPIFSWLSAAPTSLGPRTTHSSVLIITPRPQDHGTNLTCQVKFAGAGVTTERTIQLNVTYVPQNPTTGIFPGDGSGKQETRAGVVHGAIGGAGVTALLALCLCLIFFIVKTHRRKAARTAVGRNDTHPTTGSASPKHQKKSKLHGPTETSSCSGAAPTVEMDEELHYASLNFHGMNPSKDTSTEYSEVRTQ
Procedure: Binding to CD33-positive HL-60 cells were studied by flow cytometry. The determination of EC50 based on the plotted curve gives an approximate value for the affinity. The commercially available mouse anti human CD33 (BD Pharmingen; #555450, 1 mg/mL) was used as a reference antibody for assessment of the affinity, including a setup with a 50:50 mixture with the mAb to be analyzed. This assay was also used to confirm that target binding affinity was not negatively affected by conjugation with the chelator.
HL-60 cells were grown in Iscove's Modified Dulbecco's Medium (IMDM; Invitrogen; #12440-046) in the presence of 20% of fetal bovine serum and penicillin/streptomycin. […] Subsequently, 20 μL of the preparation of resuspended cells was diluted 1:500 in Coulter Isoton II Diluent, and counted using a Beckman Coulter Z2 instrument (Beckman Coulter; CA, USA). […]
The mAb or conjugate to be analyzed was prepared fresh form frozen stock by shifting the storage buffer to PBS, kept at 4° C., and used within a few days after preparation. […]
The cells were washed twice, as described above, and re-suspended in 200 μL PBS, supplemented with 0.1% BSA. All samples were analysed in 96-well round or conical bottom plates. Fluorescent signals were recorded on a Beckham Coulter Cell lab Quant SC flow cytometer (Beckman Coulter; CA, USA). […]

HL-60 tumour [1] = test: Biodistribution in HL-60 tumour bearing nude mice; conditions: 15 kBq/animal intravenous, HL-60 xenograft
Excerpt: Female NMRI nude mice were xenografted with cells from the human HL-60 tumour cell line. […] 54 female NMRI nude mice (Taconic, Europe) were used in the study.
The animals were allowed an acclimation period of at least 5 days before entering the study and were at an age of 4 weeks before tumour inoculation. […] Animals were kept in individually ventilated cages (IVC, Scanbur) with HEPA filtered air and had ad libitum access to “Rat and mouse nr.3 Breeding” diet (Scanbur BK) and water acidified by addition of HCl to a molar concentration of 1 mM (pH 3.0). HL-60 cells (ATCC/United Kingdom; Catalog Number CCL-240) were grown and prepared for subcutaneous inoculation in IMDM (Invitrogen; #12440-046) in presence of 20% FCS and penicillin/streptomycin. […]
Animals were euthanized at predetermined time points post injection, and blood, muscle, femur, kidneys, lung, liver, stomach, small intestine, large intestine and tumour were collected. Tissues and blood samples were weighed, and the radioactivity in each sample was measured using gamma spectroscopy (HPGe15p or HPGe50p germanium detectors).
The measured radioactivity (Bq) was related to the radioactivity measured in 10% injection standard samples, and the percentage of Th-227 and Ra-223 were calculated and presented as % ID or % ID per gram of tissue.

[2] = system: CD33 positive HL-60 cells; test: Th-227-induced cell cytotoxicity (ATP, CellTiter-Glo) in HL-60 cells; assay type: cell-based, human; conditions: 3 nM or 0.3 nM, 44 kBq/μg, up to day 7
Procedure: In vitro cell cytotoxicity was investigated in CD33 positive HL-60 cells. AGC0715 and the control trastuzumab conjugated AGC0015 were used to chelate Th-227 to a specific activity of 44 kBq/μg. HL-60 cells were grown at 37° C. with 5% CO2, and split 1:5 three times a week. The day before the assay the culture medium (Iscove's Modified Dulbecco's Medium (IMDM) with 20% FBS and 1% Penicillin/Streptomycin) was replaced by new medium and the volume adjusted to give 400 000 cells per mL.
About, 1 600 000 cell (4 mL) were added to each well in a 6 well plate. The plate was incubated until next day for addition of labelled mAb, or culture medium. After adding labelled mAb, or culture medium, the plate was incubated for 4 additional hours. In one experiment AGC0715 or trastuzumab-AGC0015 was added to each well to a final concentration of 3 nM. In another experiment the final concentration was 0.3 nM.
Following incubation, the cells were washed twice in culture medium, and the ATP in the supernatant and in the pellet was measured. The cells were then split 1:2 and incubated in culture medium at 37° C. with 5% CO2. The same procedure, but with only one wash, was repeated at days 2, 4, and 7.

HL-60 tumour [3] = system: HL-60 tumour; set-up: species or system mice; conditions: mouse, in vivo
Procedure: Cell preparation and xenografting of female NMRI nude mice are done as described in Example 9. […] The mice have an approximated body weight of approximately 20 grams at the start of the study. […] Mice will be inoculated with tumour cells about 10 days before dosing in order to have mice with average size of tumours in the range from 75-150 mm3. Animals are randomized into 4 treatment groups and 3 control groups (n=10/group).
Mice in the treatment groups are injected into the tail vein with 100 μL containing 75 kBq/mL, 150 kBq/mL, 225 kBq/mL or 300 kBq/mL AGC0715-Th-227, to achieve 250, 500, 750 or 1000 kBq/kg body weight (b.w.). The mice in the control groups are administered either with vehicle only (buffer), non-radioactive antibody (AGC0715) or trastuzumab-Th-227, labelled to a specific activity of 500 kBq/kg (isotype control).
Appearance of tumours will carefully be monitored, and the tumours will be scored (if not large enough to be measured) or measured thrice a week according to the following scheme:
Tumour diameters will be measured in two dimensions using a digital caliper and the volume will be estimated by the following formula: L×W×[…] (Length×Width×½ Width). […] Body weights will be recorded once a week. […]
The mice will be terminated following maximal tumour size of 15 mm diameter. […] In case of observations of adverse clinical signs, these will be recorded as note to files. […]

| Molecule | binding affinity (CD33) | tumour targeting / build-up of radioactivity (HL-60 tumour [1]) | cellular toxicity (cell viability by ATP) [2] | adverse clinical signs (HL-60 tumour [3]) |
| --- | --- | --- | --- | --- |
| B1 | comparable to the non-conjugated AGC0700 | Build-up of radioactivity was seen in the tumour, but in no normal tissue |  |  |
| B2 |  | specific tumour uptake | resulted in cellular toxicity | No adverse clinical sigs |
